Measured values reported in the supplement of paper PMC9170038.

Test system: MS2 coat protein
Assay: apparent KD of MS2 coat protein; designed switch direction (-1 OFF switch, 1 ON switch): -1; higher = weaker reporter binding
In short: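 RNA switches sharing common flanks were transcribed by stalled E. coli RNA polymerase on Illumina chips. A doubling series of SNAP-549-labelled MS2 coat protein, from 0.7 or 1.5 nM to 3 µM, was applied in Tris-HCl pH 7.5 buffer with KCl, MgCl2, BSA, DTT, tRNA and Tween-20. Each step lasted 0.8–1.5 h at the bottom of the series and 10–20 min at the top. Normalised cluster fluorescence was curve-fitted, giving apparent KD as the per-design median over clusters.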

[1] = Eterna round: R95, input ligand: FMN 200 uM
[2] = Eterna round: R95, input ligand: microRNA oligo, concentration not stated
[3] = Eterna round: R95, input ligand: none
[4] = input ligand: microRNA oligo, concentration not stated

Sequence	apparent KD of MS2 coat protein [1]	apparent KD of MS2 coat protein [2]	apparent KD of MS2 coat protein [3]	apparent KD of MS2 coat protein (input ligand: FMN 200 uM)	apparent KD of MS2 coat protein [4]	apparent KD of MS2 coat protein (input ligand: none)
GACUGGACGUGGUCUGGUUACAUGAGGAUCACCCAUGUAGGUCUAAGAACAUGCCUUUUGUACGCUCGUCUUAUAUA [JR_SV3TOV1_Sub065] (puzzle: Sensor v3, turn-off variant 1)	37.9 nM	20.7 nM	39.6 nM	–	–	–
CUUUCUUGCAAGGAUAUGCAAUUUAUUAUUUAUGCAGAAGGUGCUACAUGAGGAUCACCCAUGUUUCUGGGUUU [JR_E6_Sub045] (puzzle: Exclusion 6)	–	124 nM	–	–	–	–
CGAUAUUAUGUCAGGAUAUACAUUGCGAAAGCAAUGUAGAAGGGACAUGAGGAUCACCCAUGUCCUAACUAUCG [Omei A 2] (puzzle: Brourd's mod of Exclusion 4)	–	12.9 nM	–	–	–	–
UUUAAUUUUUUUUUUUUACAAGCUUUUUGCUCGUCUUAUACAUGAGGAUCACCCAUGUGGGUAGAGAGUAAAUUAUC [JMF 59] (puzzle: Sensor v3, turn-off variant 2)	16.7 nM	80.6 nM	16.1 nM	–	–	–
AAUGAGCGAGGAUAUGCAACUGUAUGACCUACGUGUGCCAGACAUGAGGAUCACCCAUGUAGAAGGUGCUUUCC [Israte] (Eterna round: R96, puzzle: Exclusion 2)	–	–	–	59.9 nM	45.3 nM	57 nM
AGUUGGCGAGGAUAUACAUGAGGAUCACCCAUGUGGUCCUGCGAUGGUGUCGCCCUUUGUAGAAGGCGCGGGUA [salish99_ex3_r4_055] (Eterna round: R97, puzzle: Exclusion 3)	–	–	–	40.7 nM	–	38.8 nM
UAUAUAUAGUAAGGAUAUGUAUUAAUAUUAUAAACAGAAGGUACUGACAUGAGGAUCACCCAUGUUUUAGUGUGGGCAUGUAGA [JMF's solution 77] (Eterna round: R96, puzzle: Exclusion NG 1)	–	–	–	–	66.8 nM	–
GGUACUCAAAGAGUACCAAUACGAACAUGAGGAUCACCCAUGUAGGAUAUGCUACUCAAAGAGUAGCAGAAGGAUAUGAUCCCU [Far Half Aptamer v12] (Eterna round: R96, puzzle: Exclusion NG 3)	–	–	–	211 nM	99.6 nM	126 nM
AGUUGGCGAGGAUAUACAUGAGGAUCACCCAUGUGAAAUCGAGAAAAAAUAGGGAAAAGUAGAAGGCGCAGACA [Ruby 63] (Eterna round: R96, puzzle: Exclusion 3)	–	–	–	28.2 nM	24.3 nM	28.7 nM
AUAAGCUUUGAGAUCCUUAACAUGAGGAUCACCCAUGUUCGUCUUAUGAUGGUCUGAUCCCUGAGGAUCGGACCGUC [JL-sv1-2.01 Brourd Mod] (puzzle: Sensor v3, turn-off variant 1)	456 nM	13.5 nM	416 nM	–	–	–
GUAGAGUGAGGAUAUACAAGAUCGAAAGAUCGGCGAUCCAUACAUGAGGAUCACCCAUGUAGAAGGCACUCUAC [Eli x2 4.007] (Eterna round: R97, puzzle: Exclusion 2)	–	–	–	678 nM	–	102 nM
UUGUAGGGAGGAUAUCAGAAGCUCCACAUGAGGAUCACCCAUGUAGCCGCUGCUGGAUUCUGAGAAGGCUUGGGUU [Eternabot (L2) Solution 8] (Eterna round: R97, puzzle: Exclusion 5)	–	–	–	58.8 nM	–	58.3 nM
GCCAGUGCAGGAUAUCUAUAACCCUACAUGAGGAUCACCCAUGUCCAGCGAAAGCUGGAGGGAGAAGGGCACUGGC [Fiskers Ex 5 - 27] (puzzle: Exclusion 5)	15.5 nM	17.6 nM	21.5 nM	–	–	–
AUAAUACAUGAGGAUCACCCAUGUGAGGAUAUACGACUCCAACCAAACUGCUUGGACCGUAGAAGGCACAAGGG [Exclusion 1 (MOD1 Esqu)] (Eterna round: R97, puzzle: Exclusion 1)	–	–	–	22.7 nM	–	589 nM
UUUUAACAUGAGGAUCACCCAUGUGAGGAUAUCGAAAUUUAUAUUAAUAUUAUUAUAUCGAGAAGGCACAUUUU [JMF 40] (puzzle: Exclusion 1)	–	86.6 nM	–	–	–	–
AAGCAACAUGAGGAUCACCCAUGUGAGGAUAUACGCAUGCAUGCAUGCAUGCAUGCAAGUAGAAGGCACAAUAC [Design #16] (Eterna round: R97, puzzle: Exclusion 1)	–	–	–	69.8 nM	–	35.3 nM
ACAUGUAAUGCAGGAUAUCGGACACAUGAGGAUCACCCAUGUGACCAGAGGAAUUGCUAAGAGUCUGAGAAGGGUAUGUACAUG [Ex NG2 #52] (Eterna round: R96, puzzle: Exclusion NG 2)	–	–	–	23.2 nM	12.9 nM	19 nM
AAGUACCGUCACGAUAGUGAUGGUACAACUAGCAUGUAAACAUGAGGAUCACCCAUGUCCUCAAUUGCUCGUCUUAU [Sensor 3 - 69] (puzzle: Sensor v3, turn-off variant 2)	740 nM	829 nM	814 nM	–	–	–
UUUACAAGCUUUAGAUCCCACAUGAGGAUCACCCAUGUUGCUGCCGUGAGGUAGCUUUUAACUAAUGCUCGUCUUAU [JL TOV1 3.41] (Eterna round: R97, puzzle: Sensor, turn-off variant 1)	–	–	–	103 nM	–	124 nM
GAAAAGGUAGGAUAUACGAAAAAAAAGGUUAGAAAAAAAACACAUGAGGAUCACCCAUGUAGAAGGACCAAAAG [salish99_ex2_r3_067] (puzzle: Exclusion 2)	17.4 nM	21.8 nM	17.8 nM	–	–	–
GUCCUACAUGAGGAUCACCCAUGUGAGGAUAUGCGGUUAGCUGCUAGGUAGUUAGUAUGCAGAAGGCGCGUGAA [EX1 #80] (Eterna round: R97, puzzle: Exclusion 1)	–	–	–	15.9 nM	–	14 nM
AAGUCCGAGCGAGGAUAUUCACCUCAGUCAGCUGAAGAAGGCGCUAAGCGGUGAUUAUUUUGUACAUGAGGAUCACCCAUGUCA [Eternabot solution 49] (Eterna round: R96, puzzle: Exclusion NG 1)	–	–	–	20.7 nM	21.2 nM	22.6 nM
AAUAAGUGAGGAUAUGCAAUAAUAAAUAAAAUAAUAAAUAAGCAGAAGGCACAUGAGGAUCACCCAUGUAAUAA [JMF's solution 1] (puzzle: Exclusion 4)	29.2 nM	20.8 nM	21.6 nM	–	–	–
AUAAAUCAUGUAGGAUAUGCGUGGCAAAGCUAUGCAGAAGGACAUGAGGAUCACCCAUGUGCUUCCGUCUGCGUACAGACGGUA [Mat - Exclusion NG 1 - Mod of JL - D33] (Eterna round: R96, puzzle: Exclusion NG 1)	–	–	–	114 nM	80.7 nM	107 nM
UUCCUGUCAGGAUAUGACUAGAUGCACGUUAGUGUGUUUACUUAGAAGGGACAUGAGGAUCACCCAUGUAUUCC [Bring Us a Shrubbery-15] (puzzle: Exclusion 4)	–	25.1 nM	–	–	–	–
CCGGAAAAGGAGGAUAUAGGAGUCGAUAGACACCUAGAAGGCCUGACAUGAGGAUCACCCAUGUGUCCUACCGG [Fiskers Ex 6 - 92] (puzzle: Exclusion 6)	38.3 nM	17.9 nM	16.8 nM	–	–	–
